In the DeepSol protein solubility set:

Assay: soluble on expression in E. coli; label from the status in PepcDB or PDB records

For “MGSDKIHHHHHHMRKVVEVSGVRKSFGELRVLDKVDFYAEEGDFKVIVGENGSGKSTLLKIMIGLLLPDDGEVKVLGVDVKKHWKKLSARIGVVLANERSLYWKLTAWENLDIFGGVYGVPKKVRRERMEELLKRFGLFEYKDKPVEEFSTGMRKKLMICKALIHDPEVLFIDEILNGLDPPSVREMVGFLDERNRRGLTIVMISHVLHVLPENACVVLLRNGRVQMEVRYKDIRSERSEVYEVFENLIRGRNMDEEDTPSGSEGDEDKA”, which “soluble on expression in E. coli” value is on record?
The value was “not soluble”.

With “GMLKLCGFAASNYYNKVKLALLEKNVPFEEVLAWIGETDTTATPAGKVPYMITESGSLCESEVINEYLEAAYPQTPLLPRDPMQAGKVREIVTFLELYLELTARELYPEAFFGGKVSDNVKERQLKLLSRYVPAFAKLAKFSPYVAGDTFTLADCAAAVHLPLVSSCTKIIYGKDLLADLPVKEYLKTLSERPSVQKVNADRKANTELMLSRNK” as the sequence, how does the “soluble on expression in E. coli” value read?
Its value is “soluble”.

Which “soluble on expression in E. coli” value does the source give for “KVWKPGDECFALYWEDNKFYRAEVEALHSSGMTAVVKFTDYGNYEEVLLSNIKPVQTEAWVRDPN” here?
Its value is “soluble”.

With “MKRMHNPAHPGEVLREYLGELTVTNAAAKLGVSRVALSRILNGTNGISADMALRLEDALGTSAEMWAAMQFKYDLWVASQQPRPKITRLHV” as the sequence, how does the “soluble on expression in E. coli” value read?
Its value is “not soluble”.

For “MKVDGKHTRTIWLEADGWTVGTIDQRRLPHDYVVVKLTSSDDAADAIRTMLVRGAPLIGATAAYGMALAMREDASDAGLDAAYAKLVATRPTAINLKWALDEMRRALAPVQPADRVAAAYRRAGEIADEDVAINQAIGASGLKLIEAIAATKKPGERVNVLTHCNAGWLATVDWGTATAPIYQAFDAGIPIHVYADETRPRNQGASLTAWELGHHGVDHTVIPDNTGGHLMQHGLVDIVIVGTDRVTADGDVCNKIGTYLKALAAADNKVPFYVALPSPTIDFTIHDGVREIPIEQREAAEVTDMTGRTNDGRIETVRIVPQGSKVANYGFDVTPARLVTGLITERGVLKADRAALAAAFPERVAQAKELLRASAAALEHHHHHH”, which “soluble on expression in E. coli” value is on record?
The value was “soluble”.

With “MSEKETPSPVLDVKKEKNEETGIDEEKSSEDDCSKRSKVKSNPSKFSVNSILSPLESLVRVQQQLLKMAASKSGTPGTNAGVPGAFPYGPGRLPGNYFAGPFPGYSGAQPNWYNGNDPRFAAAAALLPCSIDPVRSAINHQFSMSSMSQRRKRRVLFSQAQVYELERRFKQAKYLTAPEREQLANSIRLTPTQVKIWFQNHRYKCKRQEKEKAMSGLGHSEDGSSPPPDNDDDDDKYSIEMDDKDDEEEEESEKPVLKPSGVFGLPYPPNAAAAAAAAAAAFNFPFAAQGPNPAYYMRW” as the sequence, how does the “soluble on expression in E. coli” value read?
The value was “not soluble”.

Which “soluble on expression in E. coli” value does the source give for “FVVAFLCNWCSYACADLTGMSRIHYPTNIRVIRTMCSARINPEFVLEALKGGADGVLVAGCRMDECHYIHGNFDAKKRMDVLKEIIKEIGLDPKRLRTLWISAAEGERFSNTITEFVKELEEIGPIGSELKREYTATGLEEVAK” here?
Its value is “not soluble”.

For “MGSDKIHHHHHHMECLLKTTSSVRFGSIHHPCECPANEACPFSIMSLFKRKAASSLETLALAKVGETVRKRLSADPGVYRIPLDDLEIFGVADFFSAEECAKLMAIVDSVARPSPTYSGTDASGRTSYTGDVDPFDPFVLMLQRRIDDLMGIDPSFGETIQGQRYAPGQEFRGHYDHFLPSQPFWDAEQKRGGQRSWTAMAYLNAVEEGGQTEFARVNLSIPPQPGALLIWNNMKPDGTPNANAMHAGMPVVRGTKYVLTKWYRSRPWH”, which “soluble on expression in E. coli” value is on record?
Its value is “not soluble”.

With “MSLDHPPLCVLLVDDDSLVLDSTTLLLEDLGHRVIRAASGAQALQCLEQHRDIQLMISDMAMPHMDGRQLAEAVRRLHPQLPIILASGYAQRQDGPVPELPRIFKPFSQAQLRDALAQVLAQSAEGHHHHHH” as the sequence, how does the “soluble on expression in E. coli” value read?
Its value is “soluble”.

With “MNLNYTIASQVNPHVVPFMQSDASRYRKDILSWPQRILRRQGKVISLGIMDFTRERLGNVPPVRRLLDHGYGIVGQRYYGDVNIIAPFNLRQYAYMLQNPRPHLFKLLQQQGERATLEHHHHHH” as the sequence, how does the “soluble on expression in E. coli” value read?
The value was “soluble”.

With “MSLSNLTSQLHNFFSAQLAGVSDEVRVSIRTAPNLLPPCEQPLLSMSNNSRLWGNVNVLARCGNDKRYLQVNVQATGNYVVAAMPIARGGKLEAGNVKLKRGRLDTLPPRTVLDINQLVDAISLRDLSPDQPIQLTQFRQAWRVKAGQRVNVIASGDGFSANAEGQALNNAAVAQNARVRMVSGQVVSGVVDADGNILINLEGHHHHHH” as the sequence, how does the “soluble on expression in E. coli” value read?
The value was “soluble”.

Which “soluble on expression in E. coli” value does the source give for “MEIGTVTSQEEKLAYEKSIEMAGNYANQFDAQMEANQAIARTLACTMAEYGSQDREEAMSIIKRILNENPQLIGVYLGYEPDAFDGRDKNYINAPGHDSTGRFVPYCNKINGPVIIEPLVHYDSSDYYQLPKTTGKDTLTEPYFYEGIFMVSYDSPIFKNGEFAGIAGVDVPLEYVDDVASSIRTFDTGYAFMVSNTGIFLSHPTQKNWIGEKSLSDFDVEEIKNAASDIREGIGGHVEIKDPITGKTVIMFYEPVKTGDFSFVLVVPKEEMLAGVKDLRDRLLEHHHHHH” here?
The value was “soluble”.

Which “soluble on expression in E. coli” value does the source give for “MSGWNAYIDTMTAAAPSIKRCAIVGAADGSVWARTEADNVFKASEEELKTFVALFNDVTQVPAKGADIEGVHYVVPRTEESLIFGKKENTGFFAVKTKSAVLIAVYEGPNEVAAQVRKAVESMQTYLNNAGY” here?
Its value is “not soluble”.

With “MSLTILAIDTSNYTLGIALLREDTVIAEYITYLKKNHSVRAMPAVHSLLNDCDMAPQDLSKIVVAKGPGSYTGVRIGVTLAKTLAWSLDIPISAVSSLETLAANGRHFDGLISPIFDARRGQVYTGLYQYKNGLLEQVVPDQNVMLADWLEMLKEKDRPVLFLGHDTSLHKQMIEDVLGTKGFIGTAAQHNPRPSELAFLGKEKEAADVHGLVPDYLRLAEAEAKWIESQKEGHHHHHH” as the sequence, how does the “soluble on expression in E. coli” value read?
The value was “soluble”.

Which “soluble on expression in E. coli” value does the source give for “MGLSNRAIIIDGKNHLLGRLASIVAKKLLQGDKVVVLRAEEIVISGNFHRSKLKYMSFLRKRCNINPARGAFHYRAPGKIFWRTVRGMLPHKTNRGNEALKNLRAYEGVPAKYQKTKSLHAPSASRFRLQPRRKFCVVGRLSHEVGWQFQDVVAKLEAKRKVKGAAYFEQKKKMDKLAVQAKKNAAPKIAQYQKIIEALGYN” here?
Its value is “not soluble”.

Which “soluble on expression in E. coli” value does the source give for “APQVVDKVAAVVNNGVVLESDVDGLMQSVKLNAAQARQQLPDDATLRHQIMERLIMDQIILQMGQKMGVKISDEQLDQAIANIAKQNNMTLDQMRSRLAYDGLNYNTYRNQIRKEMIISEVRNNEVRRRITILPQEVESLAQQVGNQNDASTELNLSHILIPLPENPTSDQVNEAESQARAIVDQARNGADFGKLAIAHSADQQALNGGQMGWGRIQELPGIFAQALSTAKKGDIVGPIRSGVGFHILKVNDLRGESKNISAAQKDRAYRMLMNRKFSEEAASWMQEQRASAYVKILSN” here?
The value was “soluble”.

For “MGKSLTEIAEELKGNDKKVQLIYAFNGTGKTRLSREFKNLIAPTSSEEPDGEPTRRKFLYYNAFTEDLFFWDNDLLANEAPRLKIQKNSFTDWLLRDNGLDGAVIKNFQYYTDDKLTPDFNDDFSEIAFYFARGNDEQIENIKISKGEESNFIWSIFYVLIRQVIAELNIPEDSEEGRSTDQFDDLEYIFIDDPVSSLDENHLIQQAVDLADLIKLSKPRLKFIITTHNVLFYNVLYNELKKLEKEKKSYLLLKNEDGSFDILEKQGDSNKSFSYHLHLKGVIEKAIENQQVERFHFMLLRNLYEKTANFLGYKQRSDILPEDSRRNYFQRIINFTSHSTLSNEAFAEPTPQEQETVKLLLQHLLDNYNFFQDDEQRDKP”, which “soluble on expression in E. coli” value is on record?
The value was “not soluble”.

Which “soluble on expression in E. coli” value does the source give for “GPGMASSPRPKMDAILTEAIKACFQKSGASVVAIRKYIIHKYPSLELERRGYLLKQALKRELNRGVIKQVKGKGASGSFVVVQKSRKT” here?
The value was “soluble”.

For “MGSDKIHHHHHHMALTQITQTVSPQPTPPELRKYDYDLVIVGGGIVGLTLASALKDSGLNILLIEAKVSSAAVAKGQAYAVHLLSALIYQGIGIWDKILPQIAKYRQVRLSDADYPGVVEFETTDLGTPELGYVAEHQALLEPLQEFVQNCPNVTYLCPAEVVSTNYQQNEVVIAVKIADQLNTIRSKLLVAADGSRSPIRQAAGIKTHGWKYWQSCIVAFVKPEKPHNDTAYERFWPSGPFAILPLPGNRCRIVWTAPHDEAKALCALNDEEFLQELSQRFGKQMGKLELLGDRFVFQVQLMQSDRYVLPRLALVGDAAHNCHPVGGQGLNLGIRDVAALAQVIQKAHQAGEDIGNIRVLKRYESWRQKENLAILGFTDMLDRMFSNQFPPLVFVRRLGLWFLQSVPALKTFMLKLMIGLKGKTPELAKR”, which “soluble on expression in E. coli” value is on record?
The value was “not soluble”.

With “MGSDKIHHHHHHMNVTTSTLADGREIIYFDDHELREGERVLHDSRDLPHTQPLSEIRHDPLTNTWVAYAAHRMNRTFMPPANENPLAPTTPGNLPTEIPSPTYDVVVFENRFPSFSMNIAVGEDWESYVDGIDLYPRRPALARCEVVCFTPDVDKSFKDLPVSRIRTVINAWAHRTEALSALSGVQQVFPFENRGEEIGVTLQHPHGQIYSYPFLSPRLQAIVQSAQYYAETHDGHDLFDAIIREESAVQTRVIERTEHFIVFVPAAAKWPVEAMVMPLRAVADFTELTDVERDDLAALLKRLYTAVDSFFEGVTKTPYIAGWTQAPVDPALRPFGRLHLQLFSLMRSPNRMKFLAGSESSQGVWINDTTPERIAQRFKEVWPHATLD” as the sequence, how does the “soluble on expression in E. coli” value read?
The value was “not soluble”.

With “SMSVKKPKRDDSKDLALCSMILTEMETHEDAWPFLLPVNLKLVPGYKKVIKKPMDFSTIREKLSSGQYPNLETFALDVRLVFDNCETFNEDDSDIGRAGHNMRKYFEKKWTDTFKVS” as the sequence, how does the “soluble on expression in E. coli” value read?
The value was “soluble”.

Which “soluble on expression in E. coli” value does the source give for “MGSDKIHHHHHHMLKFGTAGIPINAKNTESALEYLKEIKLDAMELEFVRGVNLKAEKAESLAKNLKITLSAHAPYYINLNAKEPEKIESSIKRIVDSAKIISIFNKKNSENKNVVFHSGFYLKQDKDLVYEKIKVNIQKILKIMDENKINAILRPETTGKISQFGSIDELIQLSTEIDIMPCIDFSHVYARSLGKINDYDSFSNILSKLENNLGKKGIKDMHIHISGIDFGNGGEKKHFPILNSEFNYMAVLKALKDFECSGTVICESPKLEYDAVILKKNYEEL” here?
The value was “not soluble”.

For “MKNIHSIEFYTGSKEELLPDFEKDFPYIASRAELDKYIGGYVPWHWHRTVELFYMESGSIEYDTPGGKILFPAGSGGMINPNVLHMTKAISQREKNIQLLHIFDVSLLAGEQGSRIEQKYIAPVITAPQIEVIPLFPGNAEEERILKLLAASFRLSSDEFGYEIKLREALTEIWLMLFELSCSMREKKGEHNKSNDKIKLMMIYIHEHYREKISILELAAAAYLSERECYRVFHDCLHMTPVEYITTYRLQIACQMLAKGQEPITVISHECGLGSSSYFGKVFREYAYCSPTEYRKKWQNSDM”, which “soluble on expression in E. coli” value is on record?
Its value is “soluble”.

Which “soluble on expression in E. coli” value does the source give for “MEERTLVILGATGSIGTQTLDVLKKVKGIRLIGISFHSNLELAFKIVKEFNVKNVAITGDVEFEDSSINVWKGSHSIEEMLEALKPDITMVAVSGFSGLRAVLASLEHSKRVCLANKESLVCGGFLVKKKLKEKGTELIPVDSEHSAIFQVMEPEVEKVVLTASGGALRDWKISKIDRARPEDVLKHPVWNMGARITVDSATMVNKAFEVLEAMELFELPFEKIEVKIHREGLVHGAVVLPDGNVKMVVSPPDMRIPISYALFYPRRVALEPFFLRTISLSFEDPDPEKYPAFFLLKEIKDSYALRTAFNAADEVAVEAFLKGRIRFGGIHRVIEKTLEEFQGYPQPRTLDDVERIHFEAIKKAERVTEWLSSTSY” here?
The value was “soluble”.
